T1: full-length mouse DLL3 on transfected HEK293 cells (mouse, UniProt O88516 33-584)
T1 construct: also called 293 mDLL3
T1 sequence: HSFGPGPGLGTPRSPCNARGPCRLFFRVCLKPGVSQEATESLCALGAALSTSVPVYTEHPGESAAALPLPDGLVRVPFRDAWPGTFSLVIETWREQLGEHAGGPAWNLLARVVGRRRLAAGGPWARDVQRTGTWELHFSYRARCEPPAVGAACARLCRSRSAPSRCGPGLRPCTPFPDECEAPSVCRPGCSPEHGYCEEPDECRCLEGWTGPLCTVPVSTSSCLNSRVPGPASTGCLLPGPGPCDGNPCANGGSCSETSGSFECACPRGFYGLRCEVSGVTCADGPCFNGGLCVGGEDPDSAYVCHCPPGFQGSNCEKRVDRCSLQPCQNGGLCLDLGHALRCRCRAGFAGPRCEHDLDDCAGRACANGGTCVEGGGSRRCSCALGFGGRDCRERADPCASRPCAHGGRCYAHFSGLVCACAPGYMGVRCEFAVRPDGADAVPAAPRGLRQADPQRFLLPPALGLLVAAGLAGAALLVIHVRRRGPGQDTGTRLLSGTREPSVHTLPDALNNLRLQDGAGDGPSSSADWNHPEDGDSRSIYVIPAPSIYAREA

T2: full-length human DLL3 on transfected HEK293 cells (human, UniProt Q9NYJ7 27-618)
T2 construct: also called 293 hDLL3
T2 sequence: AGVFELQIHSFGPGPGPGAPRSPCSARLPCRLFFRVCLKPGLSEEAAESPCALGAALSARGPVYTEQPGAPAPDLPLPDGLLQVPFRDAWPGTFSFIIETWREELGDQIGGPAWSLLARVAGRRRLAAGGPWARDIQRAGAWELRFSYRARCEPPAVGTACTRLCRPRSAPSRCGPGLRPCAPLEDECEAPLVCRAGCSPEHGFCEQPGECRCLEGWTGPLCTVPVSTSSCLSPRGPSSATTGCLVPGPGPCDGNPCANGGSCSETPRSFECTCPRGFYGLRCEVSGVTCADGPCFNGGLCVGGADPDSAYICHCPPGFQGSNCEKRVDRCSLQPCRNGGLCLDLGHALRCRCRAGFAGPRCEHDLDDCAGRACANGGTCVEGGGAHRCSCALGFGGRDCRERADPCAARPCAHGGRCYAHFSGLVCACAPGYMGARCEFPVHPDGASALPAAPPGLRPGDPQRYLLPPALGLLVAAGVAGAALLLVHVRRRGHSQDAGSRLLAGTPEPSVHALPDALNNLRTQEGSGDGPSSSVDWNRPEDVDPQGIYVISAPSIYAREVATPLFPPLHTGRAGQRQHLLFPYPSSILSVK

T3: endogenous human DLL3 on NCI-H82 cells (human, UniProt Q9NYJ7 27-618)
T3 sequence (looked up): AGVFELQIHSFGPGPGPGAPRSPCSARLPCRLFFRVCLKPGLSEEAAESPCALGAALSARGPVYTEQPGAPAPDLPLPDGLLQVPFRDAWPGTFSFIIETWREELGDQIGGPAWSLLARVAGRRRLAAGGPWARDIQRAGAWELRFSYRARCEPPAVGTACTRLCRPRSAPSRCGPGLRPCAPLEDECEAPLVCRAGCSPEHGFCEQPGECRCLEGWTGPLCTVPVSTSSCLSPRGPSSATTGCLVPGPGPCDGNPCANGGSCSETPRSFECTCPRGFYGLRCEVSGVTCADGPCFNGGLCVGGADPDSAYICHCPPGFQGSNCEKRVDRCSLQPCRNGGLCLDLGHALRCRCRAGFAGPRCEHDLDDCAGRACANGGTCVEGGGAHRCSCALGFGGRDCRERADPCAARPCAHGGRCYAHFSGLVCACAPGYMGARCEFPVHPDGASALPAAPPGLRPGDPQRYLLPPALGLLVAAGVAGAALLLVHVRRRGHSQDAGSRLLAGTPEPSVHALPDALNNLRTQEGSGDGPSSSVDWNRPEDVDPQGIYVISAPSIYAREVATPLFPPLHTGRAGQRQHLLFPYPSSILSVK

T4: DLL1 (UniProt O00548 18-545, limits assumed)
T4 sequence (looked up): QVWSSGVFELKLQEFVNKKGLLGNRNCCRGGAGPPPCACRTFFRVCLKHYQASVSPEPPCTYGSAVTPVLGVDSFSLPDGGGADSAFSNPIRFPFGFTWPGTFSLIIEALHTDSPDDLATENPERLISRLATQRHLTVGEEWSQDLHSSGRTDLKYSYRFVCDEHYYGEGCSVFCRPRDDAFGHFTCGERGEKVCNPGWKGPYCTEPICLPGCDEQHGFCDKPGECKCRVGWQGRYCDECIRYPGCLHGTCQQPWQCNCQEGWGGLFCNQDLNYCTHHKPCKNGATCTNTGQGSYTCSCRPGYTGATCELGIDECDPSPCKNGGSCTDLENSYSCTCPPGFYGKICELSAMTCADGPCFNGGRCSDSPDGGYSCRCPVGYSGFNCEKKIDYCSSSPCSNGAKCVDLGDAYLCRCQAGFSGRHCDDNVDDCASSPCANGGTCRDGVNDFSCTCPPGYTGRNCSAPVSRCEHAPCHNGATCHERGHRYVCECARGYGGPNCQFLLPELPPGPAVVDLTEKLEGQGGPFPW

T5: full-length cynomologus DLL3 on transfected HEK293 cells (cynomologus, UniProt A0A2K5WSR1 27-585)
T5 construct: also called 293 cyno DLL3
T5 sequence: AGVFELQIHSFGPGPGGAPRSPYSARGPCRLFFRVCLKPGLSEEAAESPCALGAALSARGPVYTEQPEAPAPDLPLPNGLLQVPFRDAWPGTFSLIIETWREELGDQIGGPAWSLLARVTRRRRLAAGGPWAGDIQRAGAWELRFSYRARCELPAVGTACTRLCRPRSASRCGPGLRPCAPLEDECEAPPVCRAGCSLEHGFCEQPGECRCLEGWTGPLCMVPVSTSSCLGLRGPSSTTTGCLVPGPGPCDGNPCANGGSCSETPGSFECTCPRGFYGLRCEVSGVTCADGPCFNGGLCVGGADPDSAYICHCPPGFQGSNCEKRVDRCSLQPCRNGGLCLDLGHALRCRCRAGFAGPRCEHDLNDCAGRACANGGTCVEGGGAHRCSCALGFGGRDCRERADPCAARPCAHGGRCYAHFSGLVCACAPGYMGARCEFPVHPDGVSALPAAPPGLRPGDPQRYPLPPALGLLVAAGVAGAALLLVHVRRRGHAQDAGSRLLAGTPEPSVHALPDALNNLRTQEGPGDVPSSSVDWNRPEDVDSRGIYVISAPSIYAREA


Experiments:
[1] = biological target: T1, full-length mouse DLL3 on transfected …; experiment: flow cytometry, 10 µg/ml antibody on HEK293 cells transfected with full-length mouse DLL3
Experimental: (§1) The four monoclonal antibodies (6-G23-F, 2-C8-A, 7-I1-B and 10-O18-A) were tested for their ability to bind to mouse and cynomologus DLL3 as well as endogenous human DLL3 by flow cytometry. For this purpose, HEK293 cells were transfected with plasmid DNA encoding full-length human, mouse or cynomologus DLL3 and used in the experiment. Briefly 10⁶ transfected HEK293 cells or NCI-H82 primary cells were added in FACS buffer PBS 0.5% BSA to the wells of a 96 well U bottom plate and purified monoclonal added to 10 μg/ml. After 30 minutes incubation at 4° C. the cells were washed 3 times in FACS buffer and incubated with a PE labelled F(ab)2 anti-mouse IgG H and L 2nd stage. After another 30 minutes incubation at 4° C. the cells were washed three times in FACS buffer and analyzed on the flow cytometer. Data are presented at the ratio of the Mean Fluorescent Intensity for the monoclonal divided by the background staining with the 2nd stage. As shown in the Table below, all of the monoclonal antibodies cross reacted with cynomologus DLL3 and detected endogenous DLL3 on NCI H82 cells but only 6-G23-F and 7-I1-B bound to mouse DLL3.

[2] = biological target: T2, full-length human DLL3 on transfected …; experiment: flow cytometry, 10 µg/ml antibody on HEK293 cells transfected with full-length human DLL3
Experimental: as §1

[3] = biological target: T3, endogenous human DLL3 on NCI-H82 cells; experiment: cell-based or functional assay
DLL4 = DLL4 (UniProt Q9NR61 27-524, limits assumed); experiment: FIG. 7; assay not described
DLL1 = biological target: T4, DLL1; experiment: FIG. 7; assay not described
[4] = biological target: T5, full-length cynomologus DLL3 on …; experiment: flow cytometry, 10 µg/ml antibody on HEK293 cells transfected with full-length cynomologus DLL3
Experimental: as §1

[5] = biological target: T3, endogenous human DLL3 on NCI-H82 cells; experiment: flow cytometry, 10 µg/ml antibody on NCI-H82 cells (endogenous DLL3)
Experimental: as §1

[6] = biological target: T3, endogenous human DLL3 on NCI-H82 cells; experiment: cell-based or functional assay; remark: listed apart in the source
[7] = biological target: T3, endogenous human DLL3 on NCI-H82 cells; experiment: cell-based or functional assay; remark: listed apart in the source

Chain of DLL4 (Q9NR61 27-524 limits assumed): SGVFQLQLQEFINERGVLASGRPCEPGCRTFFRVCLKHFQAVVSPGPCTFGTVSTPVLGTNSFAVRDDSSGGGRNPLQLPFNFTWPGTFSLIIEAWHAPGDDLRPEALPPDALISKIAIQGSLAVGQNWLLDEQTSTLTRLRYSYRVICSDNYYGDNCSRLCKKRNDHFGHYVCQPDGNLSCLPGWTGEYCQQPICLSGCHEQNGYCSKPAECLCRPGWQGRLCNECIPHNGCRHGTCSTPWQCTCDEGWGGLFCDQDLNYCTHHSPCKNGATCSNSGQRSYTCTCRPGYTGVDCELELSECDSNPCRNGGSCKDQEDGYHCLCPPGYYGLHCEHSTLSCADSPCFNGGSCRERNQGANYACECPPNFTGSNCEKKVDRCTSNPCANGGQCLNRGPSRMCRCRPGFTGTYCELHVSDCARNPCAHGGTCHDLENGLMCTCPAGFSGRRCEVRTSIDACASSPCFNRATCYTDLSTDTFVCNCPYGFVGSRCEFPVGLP

Row | Binder | ratio of the Mean Fluorescent Intensity for the monoclonal divided by the background staining with the 2nd stage [1] | ratio of the Mean Fluorescent Intensity for the monoclonal divided by the background staining with the 2nd stage [2] | Dy light Dy658 Fluorescence (% of the Control Reference Monoclonal Antibody), quenching internalization assay on NCI-H82 cells [3] | binding result (DLL4) | binding result (DLL1) | ratio of the Mean Fluorescent Intensity for the monoclonal divided by the background staining with the 2nd stage [4] | ratio of the Mean Fluorescent Intensity for the monoclonal divided by the background staining with the 2nd stage [5] | MFI Ratio (4° C. / 37° C. staining, 4/37 internalization assay on NCI-H82 cells) [6] | FAB ZAP % SC16 Max Killing (saporin Fab ZAP cytotoxicity on NCI-H82 cells) [7]
1 | 6-G23-F (antibody, V domains shown, Purified hybridoma monoclonal from Ablexis AlivaMAb Kappa mice (human immunoglobulin repertoire); the antibody was captured on anti-mouse Fc sensors and detected with anti-mouse IgG / anti-mouse IgG1 reagents; also called 6-G23-F (10 µg/ml)) VH: QVQLVQSGAEVKKPGASVKVSCKASGYTFTSYYIHWVRQAPGQGLEWMGIIDPSDGSTNYAQKFQGRVTMTRDTSTSTVYMELSSLRSEDTAVYYCARDREYNYYGLDVWGQGTTVTVSS VL: not shown | 3.97 ratio | 6.33 ratio | 76.5 % of the Control Reference Monoclonal Antibody | no binding | no binding | 13.1 ratio | 11.1 ratio | 1.67 ratio | 94 % SC16 Max Killing
2 | 7-I1-B (antibody, V domains shown, Purified hybridoma monoclonal from Ablexis AlivaMAb Kappa mice; the antibody was captured on anti-mouse Fc sensors and detected with anti-mouse IgG / anti-mouse IgG1 reagents; also called 7-I1-B (10 µg/ml)) VH: EVQLVESGGGLVKPGGSLRLSCAASGFTFSNTWMSWVRQAPGKGLEWVGRIKSKSDGGTTDYAAPVKGRFTISRDDSKNTLYLQMNSLKTEDTAVYYCTQYYWNSFDYWGQGTLVTVSS VL: not shown | 4.7 ratio | 9.74 ratio | 70.1 % of the Control Reference Monoclonal Antibody | – | no binding | 18.7 ratio | 19.2 ratio | 1.68 ratio | 97 % SC16 Max Killing
3 | 2-C8-A (antibody, V domains shown, Purified hybridoma monoclonal from Ablexis AlivaMAb Kappa mice; the antibody was captured on anti-mouse Fc sensors and detected with anti-mouse IgG / anti-mouse IgG1 reagents; also called 2-C8-A (10 µg/ml)) VH: EVQLVESGGGLVQPGGSQRLSCAASGFTFSSYWMNWVRQAPGKGLEWVANIKEDGSEKYYVDSVKGRFTISRDNAKNSLYLQMNSLRAEDTAVYYCARDPGWAPFDYWGQGTLVTVSS VL: DIQMSQSPSSLSASVGDRVTITCRASQGISNYLAWFQQKPGKAPKSLIYAASSLQSGVPSKFSGSGSGTDFTLAISSLQPEDFATYYCQQYNSFPYTFGQGTTLEIK | 1.5 ratio | 7.71 ratio | 62.9 % of the Control Reference Monoclonal Antibody | no binding | no binding | 15 ratio | 11.9 ratio | 1.76 ratio | 89 % SC16 Max Killing
4 | 10-O18-A (antibody, V domains shown, Purified hybridoma monoclonal from Ablexis AlivaMAb Kappa mice; the antibody was captured on anti-mouse Fc sensors and detected with anti-mouse IgG / anti-mouse IgG1 reagents; also called 10-018-A; 10-O18-A (10 µg/ml)) VH: QVQLQESGPGLVKPSETLSLTCTVSGGSINSYYWSWIRQPPGKGLEWIGYIFYSGITNYNPSLKSRVTISLDTSKNQFSLKLSSVTAADTAVYYCARIGVAGFYFDYWGQGTLVTVSS VL: not shown | 0.99 ratio | 4.74 ratio | – | no binding | no binding | 9.85 ratio | 9.4 ratio | 1.56 ratio | –
